According to US20230203482A1, “Methods of Rescuing Stop Codons via Genetic Reassignment with ACE-tRNA” (THE WISTAR INSTITUTE OF ANATOMY AND BIOLOGY, priority 2017, published 2023):
“Also recorded” adds a separate entry of the source.

B1: Glychr19.trna2: top performing glycine ACE-tRNA UGA suppressor, SEQ ID NO: 53 (nucleic acid)
chain: GCGTTGGTGGTATAGTGGTTAGCATAGCTGCCTTCAAAGCAGTTGACCCGGGTTCGATTCCCGGCCAACGCA
modifications: chemistry not fully specified

Tests used:
CFTR W1282X = experiment: Two-electrode voltage clamp of CFTR W1282X in Xenopus laevis oocytes; format: cell-based, human
Protocol: (§1) In vitro cRNA transcription. G542XUGA, W1282XUGA, and WT CFTR pGEMHE (Mense et al., 2006; PMID:1703051) plasmids were linearized by 10× excess of NheI-HF restriction enzyme (site positioned 3′ of coding region)(New England BioLabs, USA) for 3 hours at 37° C. and purified using standard cDNA precipition methods. All cRNAs were transcribed using the mMessage mMachine T7 Kit (ThermoFisher Scientific; USA). Purification of the cRNA from the transcription reaction was conducted on columns from the RNeasy Mini Kit (Qiagen, Germany). Concentration was determined by absorbance measurements at 260 nm and quality was confirmed on a 1% agarose gel (RNase-free). All cRNA was queued to […] before use and all results were generated from ≥2 cRNA preparations.
(§2) In vitro tRNA transcription. […] Equimolar concentration of T7 oligo (5)-taatacgactcactata-3′) was annealed to ACE-tRNA PAGE-purified Ultramers (20 ug; Integrated DNA Technologies, Coralville, Iowa) coding for the ACE-tRNA and preceded by a T7 promoter (italics). Importantly, the three terminal nucleotides containing CCA were included (bold).
The total reaction volume was adjusted to 100 μl and the kit reagents were added in the following amounts: 10 μl of 10X T7-Scribe transcription buffer, 7.5 μl of each nucleotide (100 mM stocks), 10 μl of 100 mM Dithiothreitol, 2.5 μl ScriptGuard RNase Inhibitor, 10 μl T7-Scribe enzyme solution. After the reaction was incubated for 4-5 hours at 37° C., the DNA template was digested with 5 μl DNase (1 U/μl) provided with the kit for 30-60 min. The ACE-tRNA was extracted from the reaction with acidic phenol chloroform (5:1, pH 4.5) and precipitated with ethanol. […]
(§3) Two-electrode voltage clamp (TEVC) recordings. CFTR Cl^− currents were recorded in ND96 bath solution that contained (in mM): 96 NaCl, 2 KCl, 1 MgCl2, and 5 HEPES (pH 7.5) in the presence of a maximal CFTR activation cocktail, forskolin ([…]; adenylate cyclase activator) and 3-isobutyl-1-methylxanthine (1 mM; phosphodiesterase inhibitor). […]

CFTR G542X = experiment: Two-electrode voltage clamp of CFTR G542X in Xenopus laevis oocytes; format: cell-based, human; conditions: for rescued CFTR current relative to WT CFTR: compared to WT CFTR cRNA 25 ng
Protocol: as §1, §2
The total reaction volume was adjusted to 100 μl and the kit reagents were added in the following amounts: 10 μl of 10X T7-Scribe transcription buffer, 7.5 μl of each nucleotide (100 mM stocks), 10 μl of 100 mM Dithiothreitol, 2.5 μl ScriptGuard RNase Inhibitor, 10 μl T7-Scribe enzyme solution. After the reaction was incubated for 4-5 hours at 37° C., the DNA template was digested with 5 μl DNase (1 U/μl) provided with the kit for 30-60 min. The ACE-tRNA was extracted from the reaction with acidic phenol chloroform (5:1, pH 4.5) and precipitated with ethanol. The precipitates ACE-tRNA was pelleted, washed, dried and resuspended in 100 μl DEPC-treated water and further purified with Chrorna Spin-30 columns (Clontech, USA). The procedure yielded roughly 100 μl of ˜5 μg/μl ACE-tRNA. ACE-tRNAs were re-pelleted in 20 ug aliquots, washed, lyophilized and stored at −80° C. until use. All results were generated from ≥2 ACE-tRNA preparations.
Expression in Xenopus laevis oocytes. Xenopus laevis oocytes (stage V and VI) were purchased from Ecocyte (Austin, Tex.). Prior to injection, each ACE-tRNA pellet was resuspended in 2 μl of ddH2O and debris was pelleted at 21,000×g, 4° C. for 25 min. […]
as §3

Row | Molecule | Hill coefficient (CFTR W1282X; W1282X dose response) | CFTR chloride conductance, suppression of UGA PTC (CFTR W1282X; W1282X, 200 ng ACE-tRNA co-injected, forskolin and IBMX) | rescued CFTR current relative to WT CFTR (CFTR W1282X; W1282X, compared to WT CFTR cRNA 25 ng) [%] | Hill coefficient (CFTR G542X; G542X dose response) | CFTR chloride conductance, suppression of UGA PTC (CFTR G542X; G542X, 200 ng ACE-tRNA co-injected, forskolin and IBMX) | rescued CFTR current relative to WT CFTR (CFTR G542X; G542X) | rescued CFTR current relative to WT CFTR (CFTR G542X; G542X, listed as ACE-tRNAGly)
1 | Trpchr17.trna39: top performing tryptophan ACE-tRNA UGA suppressor, SEQ ID NO: 48 | 1.24 | highly efficacious | ~50 | – | – | – | –
2 | B1 | – | – | – | ~1.4 | highly efficacious | WT-like current levels of expression | clear saturation at WT CFTR levels; also recorded: achieves WT-level of expressed CFTR current
